Reference: paper PMC9482650, “Quantitative fragmentomics allow affinity mapping of interactomes” (Nature Communications, 2022)

Columns and labels:
Assay in all cases: holdup assay
Design in all cases: key: below the threshold = too weak to quantify, mostly under pKd 3.1 to 4
NHERF4_1, Q86UT5-2 = conditions: plain residues with an end cap or a label only (N-terminal biotin on a linker: ado-ado)
TIAM2, Q8IVF5 = target: T1, TIAM2, Q8IVF5
T1 sequence (Q8IVF5 885-986, limits assumed, looked up): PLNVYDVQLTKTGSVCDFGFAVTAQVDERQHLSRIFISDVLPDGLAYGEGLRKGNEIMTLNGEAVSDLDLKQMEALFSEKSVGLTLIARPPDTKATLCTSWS

GIPC2, Q8TF65 = target: GIPC2, Q8TF65
Sequence of GIPC2, Q8TF65 (Q8TF65 112-203): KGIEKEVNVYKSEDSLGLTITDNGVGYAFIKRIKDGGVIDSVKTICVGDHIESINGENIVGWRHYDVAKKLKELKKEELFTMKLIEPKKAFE

PDZD7_3, Q9H5P4 = target: T2, PDZD7_3, Q9H5P4; conditions: plain residues with an end cap or a label only (N-terminal biotin on a linker: ado-ado)
T2 sequence (Q9H5P4 857-944, limits assumed, looked up): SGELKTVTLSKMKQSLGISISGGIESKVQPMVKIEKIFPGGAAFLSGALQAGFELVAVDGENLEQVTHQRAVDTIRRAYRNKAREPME

PTPN3, P26045 = conditions: plain residues with an end cap or a label only (N-terminal biotin on a linker: ado-ado)
Sequence of PTPN3, P26045 (P26045 505-587): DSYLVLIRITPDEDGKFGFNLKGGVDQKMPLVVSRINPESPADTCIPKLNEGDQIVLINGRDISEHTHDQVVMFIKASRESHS

SYNJ2BP, P57105 = target: T3, SYNJ2BP, P57105
T3 sequence (P57105 8-110, limits assumed, looked up): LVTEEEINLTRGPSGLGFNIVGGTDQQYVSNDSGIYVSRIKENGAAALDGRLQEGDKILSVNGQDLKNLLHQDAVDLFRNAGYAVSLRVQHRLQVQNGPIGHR

MAST1, Q9Y2H9 = target: MAST1, Q9Y2H9
Sequence of MAST1, Q9Y2H9 (Q9Y2H9 962-1065): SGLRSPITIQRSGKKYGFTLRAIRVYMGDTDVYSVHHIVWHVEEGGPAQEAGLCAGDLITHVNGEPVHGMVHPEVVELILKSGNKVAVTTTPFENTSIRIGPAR

GRID2IP_2, A4D2P6 = target: GRID2IP_2, A4D2P6
Sequence of GRID2IP_2, A4D2P6 (A4D2P6 272-370): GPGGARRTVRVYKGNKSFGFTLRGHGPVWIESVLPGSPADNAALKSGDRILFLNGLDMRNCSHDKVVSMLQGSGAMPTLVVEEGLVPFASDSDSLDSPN

LIN7B, Q9HAP6 = target: T4, LIN7B, Q9HAP6; conditions: plain residues with an end cap or a label only (N-terminal biotin on a linker: ado-ado)
T4 sequence (Q9HAP6 88-185, limits assumed, looked up): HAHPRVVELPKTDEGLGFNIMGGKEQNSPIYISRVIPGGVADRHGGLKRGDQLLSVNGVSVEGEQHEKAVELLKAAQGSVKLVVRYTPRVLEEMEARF

HTRA3, P83110 = target: T5, HTRA3, P83110; conditions: plain residues with an end cap or a label only (N-terminal biotin on a linker: ado-ado)
T5 sequence (P83110 354-453, limits assumed, looked up): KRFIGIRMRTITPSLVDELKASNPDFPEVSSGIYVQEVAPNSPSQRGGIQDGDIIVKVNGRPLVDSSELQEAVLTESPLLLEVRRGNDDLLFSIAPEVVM

DFNB31_3, Q9P202 = target: T6, DFNB31_3, Q9P202; conditions: plain residues with an end cap or a label only (N-terminal biotin on a linker: ado-ado)
T6 sequence (Q9P202 811-907, limits assumed, looked up): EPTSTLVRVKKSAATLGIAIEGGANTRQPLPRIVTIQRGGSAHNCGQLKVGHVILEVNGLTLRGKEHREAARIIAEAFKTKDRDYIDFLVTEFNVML

DLG2_3, Q15700 = conditions: plain residues with an end cap or a label only (N-terminal biotin on a linker: ado-ado)
LIN7C, Q9NUP9 = target: T7, LIN7C, Q9NUP9; conditions: plain residues with an end cap or a label only (N-terminal biotin on a linker: ado-ado)
T7 sequence (Q9NUP9 88-185, limits assumed, looked up): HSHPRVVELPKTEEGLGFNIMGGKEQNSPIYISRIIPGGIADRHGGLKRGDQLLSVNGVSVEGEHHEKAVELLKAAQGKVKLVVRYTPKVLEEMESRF

MPP6, Q9NZW5 = target: T8, MPP6, Q9NZW5; conditions: plain residues with an end cap or a label only (N-terminal biotin on a linker: ado-ado)
T8 sequence (Q9NZW5 125-219, limits assumed, looked up): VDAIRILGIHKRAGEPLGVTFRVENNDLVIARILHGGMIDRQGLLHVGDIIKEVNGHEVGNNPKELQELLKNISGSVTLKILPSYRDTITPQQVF

MAGI1_2, Q96QZ7 = target: MAGI1_2, Q96QZ7
Sequence of MAGI1_2, Q96QZ7 (Q96QZ7 456-580): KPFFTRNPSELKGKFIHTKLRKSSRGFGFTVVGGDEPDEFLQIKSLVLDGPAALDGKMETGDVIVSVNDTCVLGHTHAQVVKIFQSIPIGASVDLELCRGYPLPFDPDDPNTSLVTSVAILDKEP

FRMPD2_1, Q68DX3 = conditions: plain residues with an end cap or a label only (N-terminal biotin on a linker: ado-ado)
Sequence of FRMPD2_1, Q68DX3 (Q68DX3 770-861): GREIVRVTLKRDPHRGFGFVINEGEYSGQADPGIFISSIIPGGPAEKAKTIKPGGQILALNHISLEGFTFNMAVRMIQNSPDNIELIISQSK

HTRA1, Q92743 = target: HTRA1, Q92743
Sequence of HTRA1, Q92743 (Q92743 360-477): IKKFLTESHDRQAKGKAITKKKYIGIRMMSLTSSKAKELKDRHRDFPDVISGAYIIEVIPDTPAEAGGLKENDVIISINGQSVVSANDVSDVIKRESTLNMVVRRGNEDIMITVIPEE

SHANK1, Q9Y566 = target: T9, SHANK1, Q9Y566; conditions: plain residues with an end cap or a label only (N-terminal biotin on a linker: ado-ado)
T9 sequence (Q9Y566 658-767, limits assumed, looked up): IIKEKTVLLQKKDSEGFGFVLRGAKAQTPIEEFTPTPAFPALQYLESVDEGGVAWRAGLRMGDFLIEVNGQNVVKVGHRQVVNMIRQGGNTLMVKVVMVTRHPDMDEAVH

DLG4_2, P78352 = conditions: plain residues with an end cap or a label only (N-terminal biotin on a linker: ado-ado)
Sequence of DLG4_2, P78352 (P78352 155-259): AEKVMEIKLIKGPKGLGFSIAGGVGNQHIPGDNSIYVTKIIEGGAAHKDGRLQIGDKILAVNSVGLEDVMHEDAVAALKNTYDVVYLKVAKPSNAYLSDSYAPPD

ARHGAP21, Q5T5U3 = target: T10, ARHGAP21, Q5T5U3; conditions: plain residues with an end cap or a label only (N-terminal biotin on a linker: ado-ado)
T10 sequence (Q5T5U3 45-169, limits assumed, looked up): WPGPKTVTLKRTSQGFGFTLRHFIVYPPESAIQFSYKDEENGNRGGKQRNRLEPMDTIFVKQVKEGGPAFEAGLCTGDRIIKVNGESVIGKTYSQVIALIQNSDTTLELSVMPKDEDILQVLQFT

DLG1_3, Q12959 = conditions: plain residues with an end cap or a label only (N-terminal biotin on a linker: ado-ado)
Sequence of DLG1_3, Q12959 (Q12959 457-571): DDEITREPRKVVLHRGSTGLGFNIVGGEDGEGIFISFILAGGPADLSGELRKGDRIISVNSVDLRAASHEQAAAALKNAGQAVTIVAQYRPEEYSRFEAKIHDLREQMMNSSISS

GRIP1_5, Q9Y3R0 = target: T11, GRIP1_5, Q9Y3R0; conditions: plain residues with an end cap or a label only (N-terminal biotin on a linker: ado-ado)
T11 sequence (Q9Y3R0 568-668, limits assumed, looked up): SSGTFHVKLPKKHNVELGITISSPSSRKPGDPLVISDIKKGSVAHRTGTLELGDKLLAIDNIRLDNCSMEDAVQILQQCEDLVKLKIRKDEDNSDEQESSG

TJP2_1, Q9UDY2 = conditions: plain residues with an end cap or a label only (N-terminal biotin on a linker: ado-ado)
Sequence of TJP2_1, Q9UDY2 (Q9UDY2 24-128): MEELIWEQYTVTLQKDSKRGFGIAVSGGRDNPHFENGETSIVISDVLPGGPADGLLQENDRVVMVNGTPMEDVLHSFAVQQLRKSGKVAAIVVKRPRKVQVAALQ

GORASP2, Q9H8Y8 = conditions: plain residues with an end cap or a label only (N-terminal biotin on a linker: ado-ado)
IL16_3, Q14005 = conditions: plain residues with an end cap or a label only (N-terminal biotin on a linker: ado-ado)
Sequence of IL16_3, Q14005 (Q14005 1107-1207): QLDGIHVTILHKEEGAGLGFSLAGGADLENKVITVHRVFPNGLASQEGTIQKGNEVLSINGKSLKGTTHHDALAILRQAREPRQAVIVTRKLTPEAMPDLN

LNX1_1, Q8TBB1 = target: LNX1_1, Q8TBB1
Sequence of LNX1_1, Q8TBB1 (Q8TBB1 261-371): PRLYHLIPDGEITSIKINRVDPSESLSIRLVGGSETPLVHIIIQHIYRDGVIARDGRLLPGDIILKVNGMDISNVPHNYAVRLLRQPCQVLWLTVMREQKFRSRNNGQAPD

TJP1_3, Q07157 = conditions: plain residues with an end cap or a label only (N-terminal biotin on a linker: ado-ado)
Sequence of TJP1_3, Q07157 (Q07157 416-512): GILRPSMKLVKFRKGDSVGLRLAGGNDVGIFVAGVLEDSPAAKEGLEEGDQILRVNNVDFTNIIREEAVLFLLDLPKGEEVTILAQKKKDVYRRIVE

MPDZ_12, O75970 = target: T12, MPDZ_12, O75970; conditions: plain residues with an end cap or a label only (N-terminal biotin on a linker: ado-ado)
T12 sequence (O75970 1857-1958, limits assumed, looked up): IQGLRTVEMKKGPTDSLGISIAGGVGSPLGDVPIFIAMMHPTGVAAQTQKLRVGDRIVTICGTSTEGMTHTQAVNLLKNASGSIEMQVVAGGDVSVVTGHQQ

DLG3_1, Q92796 = target: T13, DLG3_1, Q92796; conditions: plain residues with an end cap or a label only (N-terminal biotin on a linker: ado-ado)
T13 sequence (Q92796 125-227, limits assumed, looked up): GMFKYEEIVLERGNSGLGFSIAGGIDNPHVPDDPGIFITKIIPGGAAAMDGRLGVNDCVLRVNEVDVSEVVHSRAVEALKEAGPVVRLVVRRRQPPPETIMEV

MPDZ_10, O75970 = target: T14, MPDZ_10, O75970; conditions: plain residues with an end cap or a label only (N-terminal biotin on a linker: ado-ado)
T14 sequence (O75970 1624-1722, limits assumed, looked up): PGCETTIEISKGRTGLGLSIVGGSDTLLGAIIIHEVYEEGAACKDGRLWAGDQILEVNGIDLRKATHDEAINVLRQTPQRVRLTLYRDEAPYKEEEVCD

DLG2_2, Q15700 = target: DLG2_2, Q15700
APBA3_1, O96018 = conditions: plain residues with an end cap or a label only
Sequence of APBA3_1, O96018 (O96018 other isoform, or with tags, fused parts or gaps): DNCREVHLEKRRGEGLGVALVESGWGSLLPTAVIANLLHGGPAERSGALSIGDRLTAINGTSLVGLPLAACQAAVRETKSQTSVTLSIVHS

APBA1_2, Q02410 = target: T15, APBA1_2, Q02410; conditions: plain residues with an end cap or a label only (N-terminal biotin on a linker: ahx)
T15 sequence (Q02410 742-832, limits assumed, looked up): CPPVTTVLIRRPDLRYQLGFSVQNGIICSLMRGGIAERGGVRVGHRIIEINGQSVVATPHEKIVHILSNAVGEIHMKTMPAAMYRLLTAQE

GRASP, Q7Z6J2 = conditions: plain residues with an end cap or a label only (N-terminal biotin on a linker: ahx)
Sequence of GRASP, Q7Z6J2 (Q7Z6J2 96-193): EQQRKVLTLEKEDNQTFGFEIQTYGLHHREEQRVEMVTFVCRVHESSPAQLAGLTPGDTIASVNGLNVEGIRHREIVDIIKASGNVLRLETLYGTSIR

Inadl_10, Q8NI35 = conditions: plain residues with an end cap or a label only (N-terminal biotin on a linker: ahx)
Sequence of Inadl_10, Q8NI35 (Q8NI35 1673-1763): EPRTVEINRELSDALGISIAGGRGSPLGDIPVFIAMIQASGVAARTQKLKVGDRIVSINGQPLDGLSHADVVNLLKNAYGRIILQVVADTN

NOS1, P29475 = conditions: plain residues with an end cap or a label only (N-terminal biotin on a linker: ahx)
Sequence of NOS1, P29475 (P29475 9-101): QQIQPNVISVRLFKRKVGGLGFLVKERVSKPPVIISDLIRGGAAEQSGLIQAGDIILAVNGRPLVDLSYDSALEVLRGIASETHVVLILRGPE

ARHGEF12, Q9NZN5-2 = conditions: plain residues with an end cap or a label only (N-terminal biotin on a linker: ahx)
Sequence of ARHGEF12, Q9NZN5-2 (Q9NZN5 other isoform, or with tags, fused parts or gaps): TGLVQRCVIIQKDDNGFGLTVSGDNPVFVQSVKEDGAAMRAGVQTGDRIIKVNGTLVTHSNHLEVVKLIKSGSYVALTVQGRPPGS

MAGI2_6, Q86UL8 = conditions: plain residues with an end cap or a label only (N-terminal biotin on a linker: ahx)
Sequence of MAGI2_6, Q86UL8 (Q86UL8 1141-1229): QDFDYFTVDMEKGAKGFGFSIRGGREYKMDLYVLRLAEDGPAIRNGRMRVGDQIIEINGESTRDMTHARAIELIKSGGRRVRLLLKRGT

DLG1_2, Q12959 = conditions: plain residues with an end cap or a label only (N-terminal biotin on a linker: ahx)
Sequence of DLG1_2, Q12959 (Q12959 314-412): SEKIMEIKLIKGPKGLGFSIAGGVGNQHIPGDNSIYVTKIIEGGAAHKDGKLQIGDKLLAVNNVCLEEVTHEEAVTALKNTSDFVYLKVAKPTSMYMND

MAGI2_5, Q86UL8 = conditions: plain residues with an end cap or a label only (N-terminal biotin on a linker: ahx)
Sequence of MAGI2_5, Q86UL8 (Q86UL8 915-1017): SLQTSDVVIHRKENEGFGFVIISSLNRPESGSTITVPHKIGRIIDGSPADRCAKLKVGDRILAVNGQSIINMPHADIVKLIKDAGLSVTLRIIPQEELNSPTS

ARHGEF11, O15085 = target: T16, ARHGEF11, O15085; conditions: plain residues with an end cap or a label only (N-terminal biotin on a linker: ahx)
T16 sequence (O15085 42-136, limits assumed, looked up): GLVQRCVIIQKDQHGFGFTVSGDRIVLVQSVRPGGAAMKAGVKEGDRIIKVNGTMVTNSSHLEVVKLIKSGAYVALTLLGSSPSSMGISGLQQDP

IL16_1, Q14005 = conditions: plain residues with an end cap or a label only (N-terminal biotin on a linker: ahx)
Sequence of IL16_1, Q14005 (Q14005 210-306): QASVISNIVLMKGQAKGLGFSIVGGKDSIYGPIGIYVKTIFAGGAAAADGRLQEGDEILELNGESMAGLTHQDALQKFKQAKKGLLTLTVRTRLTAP

[1] = plain residues with an end cap or a label only (N-terminal biotin on a linker: ado-ado)
[2] = plain residues with an end cap or a label only (N-terminal biotin on a linker: ahx)

Sequence of NHERF4_1, Q86UT5-2 (Q86UT5 other isoform, or with tags, fused parts or gaps): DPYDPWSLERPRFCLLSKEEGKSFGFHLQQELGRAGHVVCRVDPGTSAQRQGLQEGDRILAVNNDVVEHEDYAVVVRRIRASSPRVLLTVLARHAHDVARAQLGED

**Q.** Which results are given for KSTTRSSSSC [NDE1, Q9NXR1]?
**A.** pKd (NHERF4_1, Q86UT5-2): 3.85; pKd (TIAM2, Q8IVF5; [1]): 3.85; pKd (GIPC2, Q8TF65; [1]): 3.64; pKd (PDZD7_3, Q9H5P4): 3.73; pKd (PTPN3, P26045): 3.52; pKd (SYNJ2BP, P57105; [1]): 3.76; pKd (MAST1, Q9Y2H9; [1]): 3.61; pKd (GRID2IP_2, A4D2P6; [1]): 3.59; pKd (LIN7B, Q9HAP6): 3.64; pKd (HTRA3, P83110): 3.74; pKd (DFNB31_3, Q9P202): 3.75; pKd (DLG2_3, Q15700): 3.58; pKd (LIN7C, Q9NUP9): 3.88; pKd (MPP6, Q9NZW5): 3.6; pKd (MAGI1_2, Q96QZ7; [1]): 3.71

**Q.** What does the source list for EYRKDNKVAA [LSM14A, Q8ND56]?
**A.** pKd (FRMPD2_1, Q68DX3): 3.68; pKd (NHERF4_1, Q86UT5-2): 3.61; pKd (HTRA1, Q92743; [1]): 3.67; pKd (SHANK1, Q9Y566): 3.51; pKd (DLG4_2, P78352): 3.71; pKd (ARHGAP21, Q5T5U3): 3.67; pKd (DLG1_3, Q12959): 3.64; pKd (GRIP1_5, Q9Y3R0): 3.6; pKd (TJP2_1, Q9UDY2): 3.57; pKd (GORASP2, Q9H8Y8): 3.52; pKd (LIN7B, Q9HAP6): 3.83; pKd (IL16_3, Q14005): 3.51; pKd (LNX1_1, Q8TBB1; [1]): 3.82; pKd (TJP1_3, Q07157): 3.53; pKd (DLG2_3, Q15700): 3.88; pKd (MPDZ_12, O75970): 3.68; pKd (DLG3_1, Q92796): 3.55; pKd (MPDZ_10, O75970): 3.68; pKd (DLG2_2, Q15700; [1]): 3.54

**Q.** How did the pKd (APBA3_1, O96018) turn out when RRSQSPSANC [a stretch of P69709, P69709] was run?
**A.** below the threshold

**Q.** LCKSHAFSHV [PDLIM7, Q9NR12] was tested. Which pKd (APBA1_2, Q02410) did it give?
**A.** 3.83

**Q.** And the pKd (TIAM2, Q8IVF5; [2])?
**A.** 3.48

**Q.** And the pKd (GIPC2, Q8TF65; [2])?
**A.** 3.67

**Q.** And the pKd (HTRA1, Q92743; [2])?
**A.** 3.68

**Q.** And the pKd (GRASP, Q7Z6J2)?
**A.** 3.65

**Q.** And the pKd (Inadl_10, Q8NI35)?
**A.** 3.52

**Q.** And the pKd (SYNJ2BP, P57105; [2])?
**A.** 3.7

**Q.** What about the pKd (NOS1, P29475) of the same binder?
**A.** 3.48

**Q.** What about the pKd (ARHGEF12, Q9NZN5-2) of the same binder?
**A.** 3.55

**Q.** What about the pKd (MAGI2_6, Q86UL8) of the same binder?
**A.** 3.61

**Q.** What about the pKd (MAST1, Q9Y2H9; [2]) of the same binder?
**A.** 3.75

**Q.** What about the pKd (GRID2IP_2, A4D2P6; [2]) of the same binder?
**A.** 3.62

**Q.** And the pKd (DLG1_2, Q12959)?
**A.** 3.48

**Q.** And the pKd (LNX1_1, Q8TBB1; [2])?
**A.** 3.51

**Q.** And the pKd (MAGI2_5, Q86UL8)?
**A.** 3.86

**Q.** And the pKd (ARHGEF11, O15085)?
**A.** 3.48

**Q.** What about the pKd (MAGI1_2, Q96QZ7; [2]) of the same binder?
**A.** 3.9

**Q.** What about the pKd (DLG2_2, Q15700; [2]) of the same binder?
**A.** 3.56

**Q.** What about the pKd (IL16_1, Q14005) of the same binder?
**A.** 3.51
